From article PMC10275983 (2023)
No end group written: not given here.

Tests used:
Test in all cases: SPR
[1] = target: S1-RBD (ACROBiosystems SPD-C82E9) (SARS-CoV-2 (Wuhan-Hu-1 strain), UniProt P0DTC2 319-541)
[2] = target: S1 (Novus Biologicals NBP2-90985) (SARS-CoV-2, UniProt P0DTC2 14-685)
[3] = target: S2 (ACROBiosystems S2N-C52E8) (SARS-CoV-2 (Wuhan-Hu-1 strain), UniProt P0DTC2 14-1273)
[4] = target: S1-NTD (ACROBiosystems S1D-C52H6) (SARS-CoV-2 (Wuhan-Hu-1 strain))

Binder	Kd [1] [nM]	Kd [2] [nM]	Kd [3] [nM]	Kd [4] [nM]
ACEYVGPMCYRLYCA (not fully specified (bridges); also: Bicycle) [E1 Bicycle (exemplar of epitope group 1)]	3600	5100		
ACSSKFCDAWWNFNRCA (not fully specified (bridges); also: Bicycle) [E12 Bicycle (exemplar of epitope group 12)]			810	
ACMNPFFYDCETVCA (not fully specified (bridges); also: bicyclic peptide, scaffold not named) [E9 Bicycle (exemplar of epitope group 9)]	4100	3800		
ACIPLDWTCMIACA (not fully specified (bridges); also: bicyclic peptide, scaffold not named) [E4 Bicycle (exemplar of epitope group 4)]		2900		440
ACEDNDWVYCSTCA (not fully specified (bridges); also: Bicycle) [E3 Bicycle (exemplar of epitope group 3)]	2300	2500		
ACANPDNPVCRFYCA (not fully specified (bridges); also: bicyclic peptide, scaffold not named) [E5 Bicycle (canonical exemplar of epitope group 5)]		24		
ACINPYCEHHIYLEHCA (not fully specified (bridges); also: bicyclic peptide, scaffold not given here) [E7 Bicycle (exemplar of epitope group 7)]				4000
ACPYVAGRGTCLLCA (not fully specified (bridges); also: Bicycle) [E2 Bicycle (canonical exemplar of epitope group 2)]	650	830		
ACDHYHCPWLALGGSCA (not fully specified (bridges); also: bicyclic peptide, scaffold not given here) [E6 Bicycle (exemplar of epitope group 6)]				3900
ACFPEPWLGLCTPCA (not fully specified (bridges); also: Bicycle) [E11 Bicycle (exemplar of epitope group 11)]			530	
